Measured values published in publication PMC3905896 (Nucleic Acids Research, 2013).

T1: PtxS (assayed together with PtxR at Pgad) (Pseudomonas aeruginosa, UniProt G3XD97)
T1 sequence (G3XD97 1-340): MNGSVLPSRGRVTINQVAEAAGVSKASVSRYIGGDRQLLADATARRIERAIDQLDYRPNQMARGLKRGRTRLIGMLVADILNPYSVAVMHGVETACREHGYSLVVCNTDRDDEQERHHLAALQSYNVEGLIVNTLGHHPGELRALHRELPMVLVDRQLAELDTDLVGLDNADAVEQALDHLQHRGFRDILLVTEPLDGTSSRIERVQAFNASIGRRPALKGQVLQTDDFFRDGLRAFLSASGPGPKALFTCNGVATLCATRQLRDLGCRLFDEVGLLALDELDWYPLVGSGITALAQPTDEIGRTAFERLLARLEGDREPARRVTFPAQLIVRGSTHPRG

T2: PtxR (Pseudomonas aeruginosa, UniProt P72131 1-312)
T2 sequence (looked up): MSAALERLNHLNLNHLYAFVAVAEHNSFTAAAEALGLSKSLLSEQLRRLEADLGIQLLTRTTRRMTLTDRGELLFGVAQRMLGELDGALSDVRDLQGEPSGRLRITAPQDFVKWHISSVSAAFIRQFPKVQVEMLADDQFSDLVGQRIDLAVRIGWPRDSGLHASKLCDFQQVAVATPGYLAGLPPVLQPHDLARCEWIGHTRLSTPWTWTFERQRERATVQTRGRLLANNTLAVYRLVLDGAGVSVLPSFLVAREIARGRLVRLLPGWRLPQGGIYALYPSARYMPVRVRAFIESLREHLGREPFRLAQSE

B1: PtxS (natural protein, Pseudomonas aeruginosa, UniProt G3XD97 1-340, looked up)
chain: T1 sequence (G3XD97 1-340)

Legend:
[1] = biological target: T1, PtxS (assayed together with PtxR at Pgad); assay type: biochemical
[2] = biological target: T2, PtxR; assay: ITC

Molecule	EC50 [1]	KD of the first binding event [2]	KD of the second binding event [2]	dH of the first binding event [2]	dH of the second binding event [2]
O=C(O)C(=O)[C@@H](O)[C@H](O)[C@H](O)CO [2-ketogluconate]	78 µM	–	–	–	–
B1	–	0.012 ± 0.002 µM	0.099 ± 0.008 µM	-114 ± 2.93 kJ/mol	-54.4 ± 3.35 kJ/mol
